± gives the uncertainty stated by the source.

A short description of this data set: amyloid nucleation score (Sup35N fusion, yeast selection) (log enrichment); library NNK1; higher = more nucleation; inactive = no reads after selection. Put shortly: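 DiMSum was used to calculate nucleation scores as log enrichment of output over input reads, centred on the mode score of non-aggregating sequences. Sequences with fewer than 100 input reads were not scored. Input and output came from Illumina sequencing of plasmid inserts in psi-negative yeast expressing peptides of 20 random codons fused to Sup35N, induced 24 hours with 100 μM copper sulfate and then grown 7 days at 30°C on medium lacking adenine and uracil.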
SNFLFRCSIWDDMGGKCRSK: the amyloid nucleation score entry was “inactive”.

The substance SNILFLYRMKRALPNSSWEA registered an amyloid nucleation score of 0.152 ± 0.48.

Take SNKFKPVWRVLMSRVSVEAW: the amyloid nucleation score was -0.133 ± 0.68.

For the substance SNLQWYRTKGGVGLVTVMWR, the amyloid nucleation score is 0.981 ± 0.16.

The substance SNNVFMAVNSSQRIQQFMLA yielded an amyloid nucleation score of 1.03 ± 0.14.

In turn, SNNYLLCGIDGEVL had an amyloid nucleation score of 1.07 ± 0.66.

SNPYVWDVPLSRLWFVSWEL displayed an amyloid nucleation score of 0.068 ± 0.65.

In the case of SNQQLRWCECVYNGATGKVK, the amyloid nucleation score is 1.35 ± 0.47.

SNSKK: the amyloid nucleation score came out at 0.009 ± 0.25.

Take SNSRPGSGYSLFERTRYRNE: the amyloid nucleation score was 0.345 ± 0.77.

Regarding SNTDYCVSVPVLTVAFSVWA, the amyloid nucleation score is -0.343 ± 0.51.

Substance SNTSMHRLLLIIVGKNMNVV had an amyloid nucleation score of 0.261 ± 1.

In turn, SNWLM displayed an amyloid nucleation score of 2.06 ± 0.53.

Consider SPAFPP, for which the amyloid nucleation score was found to be 0.798 ± 0.79.

Regarding SPGAWKHSNPDGDCNGLA, the amyloid nucleation score amounted to 0.525 ± 0.49.

Substance SPGMWGMGVDNSKSGRWALR registered an amyloid nucleation score of 1.89 ± 0.28.

In the case of SPLVDLYDFRWRLESRYKNY, the amyloid nucleation score is 0.107 ± 0.61.

On to SPPTMIETGTHKASSH, for which the amyloid nucleation score stood at 0.199 ± 0.57.

Substance SPRSLMKGVITTHIIG showed an amyloid nucleation score of 0.917 ± 0.4.

Substance SPSKLGSE came in with an amyloid nucleation score of 0.903 ± 0.56.

As for SPTLARSVWFRCLCTANGRE, the amyloid nucleation score stood at 0.698 ± 0.93.

On to SQAETLYFYVCQVLRGQYYD, for which the amyloid nucleation score worked out at 0.305 ± 0.32.

On to SQAMTPNGVTSLLFTN, for which the amyloid nucleation score was -0.236 ± 0.59.

In turn, SQCQFVMVDRNGYGTKLRNY had an amyloid nucleation score of -0.24 ± 0.36.

Substance SQGAMFVTFMFLEYVMPQPP displayed an amyloid nucleation score of 3.95 ± 0.089.

Substance SQINWILYTSNFTLW displayed an amyloid nucleation score of -1.02 ± 1.7.

Substance SQSIAVCMVKCNCDCVHIGE showed an amyloid nucleation score of 6.126 ± 0.05.

In the case of SQTNSIISCLERFAGGLVLI, the amyloid nucleation score is 0.349 ± 0.55.

Regarding SQVGALFDVPQSVNDSFKNM, the amyloid nucleation score worked out at 0.399 ± 0.57.

Turning to SRCHQRTYEVIAEYDLSKTE, the amyloid nucleation score is 0.223 ± 0.52.

Consider SRFDGTNIVCSSGMWFCAWK, for which the amyloid nucleation score came out at 8.35 ± 0.045.

The substance SRFDMLSRALRCMK displayed an amyloid nucleation score of 1.35 ± 0.34.

SRHSGGAYNIVTMVT showed an amyloid nucleation score of 0.517 ± 0.33.

SRILRLLHTVHCDGVGERLR registered an amyloid nucleation score of -0.104 ± 1.1.

Regarding SRIYLLSDRSVFLLLYNYYR, the amyloid nucleation score is -0.167 ± 0.41.

SRLAKLSFKQGNTTVCTKSS gave an amyloid nucleation score of -0.742 ± 0.62.

SRMGPGNYWANGKSFAARPP returned an amyloid nucleation score of -0.491 ± 1.4.

As for SRRWNNDLGLFSRERKTTLV, the amyloid nucleation score is -1.06 ± 1.7.

SRSSGFAVTYSNTRTKKSKA yielded an amyloid nucleation score of -1.77 ± 1.3.

Consider SRVNDQCVLSSWR, for which the amyloid nucleation score worked out at 0.47 ± 0.5.

SRWTQS showed an amyloid nucleation score of 0.201 ± 0.88.

Substance SRYYASMYLGNYGWHVLLNW had an amyloid nucleation score of -0.103 ± 0.23.

The substance SRYYFHFELFVWR came in with an amyloid nucleation score of 0.291 ± 0.7.

SSAELFREPFQVNRCNCEGW: the amyloid nucleation score is 0.774 ± 0.47.

As for SSAGMTRTKNGPPC, the amyloid nucleation score was found to be 2.89 ± 0.082.

For SSDRAYVFCTRNMEVREGSK, the amyloid nucleation score is -0.835 ± 0.72.

Substance SSEDAVRLLLIVIFFLTFKF displayed an amyloid nucleation score of 0.778 ± 0.49.

Turning to SSEIDYVFMAPREV, the amyloid nucleation score was -0.06 ± 0.63.

In turn, SSERYLASQPNSSPSPSIPT returned an amyloid nucleation score of -0.421 ± 1.2.

Substance SSFRYVCCASRCRETSELLG showed an amyloid nucleation score of 0.142 ± 0.5.

Substance SSGDVPGFSPYGKWDFWWTC gave an amyloid nucleation score of -0.151 ± 0.45.

As to SSGFTLTSVRMGEMSTANNG, the amyloid nucleation score was determined as 1.1 ± 0.66.

The substance SSIGVVKGCIVLWLSMWNQR gave an amyloid nucleation score of 4.32 ± 0.066.

With SSKIRLFRDNTQYNGRWGSY, the amyloid nucleation score entry is “inactive”.

For SSMLSSNRRSALWKQDVSKG, the amyloid nucleation score was 0.734 ± 1.1.

In the case of SSMYDSCSLRCLGQVVR, the amyloid nucleation score was determined as 0.711 ± 0.19.

Consider SSNYMFVCRSKDLEVLLVGY, for which the amyloid nucleation score came out at 0.398 ± 0.51.

SSPPDNTKSKATLKALE: the amyloid nucleation score is -1.5 ± 2.4.

On to SSPWRYSDATFCTAGGEGKS, for which the amyloid nucleation score is -0.465 ± 0.62.

Substance SSQDYAHSIAGLVYGC yielded an amyloid nucleation score of -0.137 ± 0.98.

Substance SSRSGPPCACRTRKLACGMM gave an amyloid nucleation score of 0.145 ± 0.47.

Substance SSSFPVMVYTHDAANCHRML registered an amyloid nucleation score of -0.763 ± 0.41.

On to SSSYDY, for which the amyloid nucleation score was -0.545 ± 0.28.

Substance SSTKG had an amyloid nucleation score of 0.956 ± 0.72.

With SSVLATFIKLQHQGRKRKDR, the amyloid nucleation score was -0.198 ± 0.29.

The substance SSVRLDKNN gave an amyloid nucleation score of -0.315 ± 0.52.

In the case of SSVVL, the amyloid nucleation score turned out to be 0.531 ± 0.44.

In turn, SSYAHAVRTQDFKLASGHYV registered an amyloid nucleation score of -0.7 ± 0.88.

Take SSYSRCTFKAFKLGSVRVQV: the amyloid nucleation score turned out to be 0.924 ± 0.7.

Take STCSGISFVCHSTIIIKVTF: the amyloid nucleation score came to 3.92 ± 0.12.

STCSPKELQFMSYVCWVKFC: the amyloid nucleation score stood at 3.32 ± 0.11.

In the case of STEVGYSFCHGGMSRTVCMC, the amyloid nucleation score was 1.45 ± 0.68.

In turn, STMRLPWPGFRVHSL displayed an amyloid nucleation score of 0.901 ± 0.65.

For the substance STRMVYR, the amyloid nucleation score was -0.261 ± 0.95.

STSDMLVDSRQIVGEYTSDL showed an amyloid nucleation score of -1.3 ± 1.7.

Substance STVWLSVGALAFARASGRRA gave an amyloid nucleation score of 3.74 ± 0.12.

STWFSFTFLWLMSRGVNQNF displayed an amyloid nucleation score of 1.56 ± 0.36.

SVFGWR returned an amyloid nucleation score of 1.32 ± 0.81.

Regarding SVFWDLTSDWAKIGVKK, the amyloid nucleation score is -1.03 ± 0.89.

In turn, SVGEDSSFRRDSKINEGDCD displayed an amyloid nucleation score of 0.968 ± 0.85.

Take SVIRVLWKGYGTRN: the amyloid nucleation score was -1.55 ± 1.4.

In the case of SVLIVLMHGMGYQQKTYCRF, the amyloid nucleation score is 0.316 ± 0.48.

SVLLEGFLSYPDLSTNLIHV showed an amyloid nucleation score of -0.416 ± 0.81.

In turn, SVLLKWMSYTKH returned an amyloid nucleation score of 2.66 ± 0.15.

For SVLLRFYFTRNCGFFGRSTV, the amyloid nucleation score came out at 0.7 ± 0.97.

Substance SVLNSDCNCGIKSWFTDIIM registered an amyloid nucleation score of 1.96 ± 0.4.

In the case of SVLVLSRYFWNKLMRRWLVA, the amyloid nucleation score is -0.002 ± 1.2.

SVLWRGIFCFWIAWFV displayed an amyloid nucleation score of -1.39 ± 2.4.

As to SVNAYTSRTGRWMVMNSLVS, the amyloid nucleation score was -0.186 ± 1.9.

SVNHCHCL: the amyloid nucleation score is 0.597 ± 0.3.

In the case of SVPSVDAIMVGTWCYRCW, the amyloid nucleation score was -0.28 ± 0.68.

Substance SVRFSIETISWRGAYNRGTR displayed an amyloid nucleation score of 1.98 ± 0.22.

Consider SVSACPRVPMCIYGYLCWCH, for which the amyloid nucleation score was -0.311 ± 0.3.

In turn, SVTALKLDSSLQKSRDLVGG yielded an amyloid nucleation score of -0.233 ± 1.1.

Consider SVWCSFFVNAADHNIYRTIT, for which the amyloid nucleation score was found to be 1.11 ± 0.15.

SWAIRALKFVWIA showed an amyloid nucleation score of -0.323 ± 0.93.

In the case of SWFHGLEGVLSHATMSLGFA, the amyloid nucleation score turned out to be 0.1 ± 0.48.

For the substance SWFYDGCSRPWRGIGDRRVC, the amyloid nucleation score is -0.812 ± 0.91.

In the case of SWGQTLTMNNP, the amyloid nucleation score is -0.273 ± 0.38.

SWISCASGFFYFWAIF yielded an amyloid nucleation score of -0.739 ± 0.77.

Substance SWKPVLSREDFWTNHKGRPM came in with an amyloid nucleation score of 0.565 ± 0.45.

As for SWLWSCSCLRVAMLTT, the amyloid nucleation score result was “inactive”.

Take SWNMSFVWFHGCITWRQKGF: the amyloid nucleation score was 0.408 ± 0.4.

In the case of SYAIPMVAIFQVEGHLGHPG, the amyloid nucleation score is -0.211 ± 1.2.

SYCMLNAVPVEMRLTLPGIR: the amyloid nucleation score worked out at 0.389 ± 0.49.

In turn, SYDNLRSRREGPEVVGRRAP showed an amyloid nucleation score of 0.569 ± 0.74.

SYEMWLEHYMRRQQRRP yielded an amyloid nucleation score of -0.282 ± 1.7.

SYGNVWYIMYHRLKDTGWYM registered an amyloid nucleation score of 1.4 ± 0.43.

In turn, SYHRSSYYGLVNRMAFLVF returned an amyloid nucleation score of 2.94 ± 0.11.

Turning to SYIALIELFLFDSRRGHESV, the amyloid nucleation score came out at 0.078 ± 0.35.

Consider SYIPSISAALYFVLVMRHWL, for which the amyloid nucleation score was -0.627 ± 0.49.

In the case of SYIQLMSMMIFAHMTANRRN, the amyloid nucleation score is 1.9 ± 0.42.

SYLDLRLAVCHCNGA showed an amyloid nucleation score of 5.38 ± 0.055.

SYLFRSRRIRYFRFMHN: the amyloid nucleation score came to 3.17 ± 0.12.

Substance SYLTWDHLEVNLCTYSILGR showed an amyloid nucleation score of 0.45 ± 0.52.

SYNGCRRFNRCDRVCRNSNT had an amyloid nucleation score of 2.35 ± 0.095.

In turn, SYQCGENYMFAYVNWSVGGN yielded an amyloid nucleation score of 0.548 ± 0.84.

Substance SYRGWADADNLVLYPQNASV registered an amyloid nucleation score of 0.021 ± 0.97.

In turn, SYSIASVFWSSMSNGLGR registered an amyloid nucleation score of 0.886 ± 0.2.

Substance SYSINLPLLPRCN gave an amyloid nucleation score of 1.02 ± 0.57.

SYSMQRRKCTPAFCFA showed an amyloid nucleation score of -0.36 ± 0.54.

With SYWLWTVNTMSLVPFRASCR, the amyloid nucleation score worked out at 1.05 ± 0.36.

Regarding TAGATI, the amyloid nucleation score was found to be 0.108 ± 0.25.

As to TAIRWHFGNFVIDNIRNRGI, the amyloid nucleation score worked out at 1.25 ± 0.19.

TALSFRYVYLI yielded an amyloid nucleation score of -0.612 ± 0.61.

For the substance TASIWNSRFFHNAGSLSGPF, the amyloid nucleation score is -0.3 ± 1.1.

For TAWGHV, the amyloid nucleation score was determined as 0.411 ± 0.73.

Regarding TCAGDNHDCDIYRNLLVAFS, the amyloid nucleation score stood at 1.19 ± 0.68.

For TCCDRSRCSESSEGRRFQRT, the amyloid nucleation score worked out at 0.162 ± 0.3.

With TCLKFDSPMNCKGLSSLDMM, the amyloid nucleation score is -0.496 ± 0.38.

In the case of TCNGCGGHRMFWYK, the amyloid nucleation score is 0.099 ± 0.55.

TCNQS: the amyloid nucleation score result was “inactive”.

Substance TCWHVSILN had an amyloid nucleation score of 0.136 ± 0.24.

TDGIGYLGTWMWLWRGDGVR gave an amyloid nucleation score of 1.78 ± 0.53.

For TDRTQTYSTFASRGSDVTVT, the amyloid nucleation score amounted to 0.185 ± 0.35.

As for TEALYWRLYMGQNKILSCRG, the amyloid nucleation score was 0.366 ± 0.61.

The substance TEFHAKGPTWCELSYSFAIL came in with an amyloid nucleation score of -0.195 ± 0.58.

With TEINIASPYWNNSRSGSDMD, the amyloid nucleation score came to 0.238 ± 0.42.

The values above are taken from the supplement of paper PMC12042874.
